Assay [1] has as its target cysteine desulfurase NFS1 (subunit of the (NIA)2 subcomplex) (human).
The target is the same in assay [2]. This is another data set of the same source.
Assay [3] deals with iron-sulfur scaffold protein ISCU2, iron-loaded (human) (UniProt Q9H1K1).

In paper PMC11618653 one finds initial rate of [2Fe-2S] cluster synthesis (CD), initial rate of [2Fe-2S] cluster synthesis on ISCU2 (CD), dithionite-reduced ferredoxin, against dithionite-reduced wild-type FDX2 and initial rates of [2Fe-2S] cluster synthesis (CD) against the concentration of the FDX2 variant, maximum data, which are given here for 4 substances.

UniProt Q9H1K1, sequence (Q9H1K1 35-167): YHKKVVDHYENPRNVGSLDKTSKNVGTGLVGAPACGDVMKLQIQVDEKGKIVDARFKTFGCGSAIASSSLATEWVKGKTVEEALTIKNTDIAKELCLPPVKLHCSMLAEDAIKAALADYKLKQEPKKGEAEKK

As for “FDX2 truncation variant lacking 10 C-terminal residues (ΔC10) (from UniProt Q6P4F2 53-176) (domain or fragment)”, the initial rate of [2Fe-2S] cluster synthesis (CD) at 5 µM FDX2 variant, against wild-type FDX2 in assay [1] is less than 4 fold higher.

“FDX2-DA variant (Asp137-Asp138 exchanged to Ala) (from UniProt Q6P4F2 66-183) (natural protein)” showed an initial rate of [2Fe-2S] cluster synthesis on ISCU2 (CD), dithionite-reduced ferredoxin, against dithionite-reduced wild-type FDX2 in assay [2] of 4 fold slower.

The substance “FDX2-CL variant (cluster-binding loop residues 109EASL112 replaced with GGSC) (from UniProt Q6P4F2 66-183) (natural protein)” yielded an initial rates of [2Fe-2S] cluster synthesis (CD) against the concentration of the FDX2 variant, maximum at 1.5 µM, against wild-type FDX2 in assay [3] of 2 fold slower.

With “FDX2 truncation variant lacking 5 C-terminal residues (ΔC5) (from UniProt Q6P4F2 53-181) (domain or fragment)”, the initial rate of [2Fe-2S] cluster synthesis (CD) at 5 µM FDX2 variant, against wild-type FDX2 in assay [1] is less than 4 fold higher.
